In the test the target is human ROR1 extracellular domain-Fc fusion (human) (UniProt Q01973). As to the kind of experiment: SPR, hROR1 ECD-Fc on chip. For orientation: Surface plasmon resonance follows binding to a sensor surface in real time, without labels.

Numbering of substitutions follows the chain as printed.

B1: D3 ADV1 dimer (VNAR, part only; not given: Linker between the domains, not shown: small tags and cut ends)
chain, part: ASVNQSPSSLSASVGDRVTITCVLTDTSYGLYSTSWFRKNPGTTDWERMSIGGRYSESVNKGAKSFTLTISSLQPEDSATYYCKAQSGMAISTGSGHGYNWYDGAGTKVEIKASVNQSPSSLSASVGDRVTITCVLTDTSYGLYSTSWFRKNPGTTDWERMSIGGRYSESVNKGAKSFTLTISSLQPEDSATYYCKAQSGMAISTGSGHGYNWYDGAGTKVEIKQASGAHHHHHHGAEFEQKLISEEDLG
As usually defined, the Kd is the equilibrium constant for the complex coming apart. Read a high Kd as lower affinity. Broadly, the koff is a measure of how fast the partners let go of each other. A low value points to slow dissociation. A word on the kon: it is the rate constant with which the complex forms. Low values mean slow association, high ones fast association. Regarding B1, the Kd is 8.92 nM, the koff turned out to be 0.00567 s⁻¹ and the kon was 636000 M⁻¹ s⁻¹.

B2: D3 ADV2 dimer (VNAR, part only; not given: Linker between the domains, not shown: small tags and cut ends)
chain, part: B1 chain, part with A1T, S2R, N4D, A113T, S114R, N116D
With B2, the Kd was 26.2 nM, the off-rate (koff) stood at 0.016 s⁻¹ and the kon is 609000 M⁻¹ s⁻¹.

For the origin of these results see patent US20210317204A1.
